B1: H6L8 (antibody, human IgG1, V domains shown)
VH: EVQLVQSGAEVKKPGESLKISCKGSGYSFTGYTMNWVRQMPGKGLEWMGRINPHNGGTDYNQKFKDQVTISADKSISTAYLQWSSLKASDTAMYYCARGYYYYSLDYWGQGTLVTVSS
VL: EIVLTQSPDFQSVTPKEKVTITCSASSSIRYIHWYQQRPDQSPKRWIYDTSNLASGVPSRFSGSGSGTSYSLTINSLEAEDAATYYCHQRNSYPWTFGQGTKVEIK
notes: humanized; also called hu128.1
B2: H8L7 (antibody, human IgG1, V domains shown)
VH: QVQLVESGGGVVQPGRSLRLSCAASGYSFTGYTMNWVRQAPGNGLEWVARINPHNGGTDYNQKFKDRFTISRDNSKNTLYLQMNSLRAEDTAVYYCARGYYYYSLDYWGQGTTVTVSS
VL: EIVLTQSPATLSLSPGERATLSCSASSSIRYIHWYQQKPGQAPRRWIYDTSNLASGTPARFSGSGSGTSYSLTISSLEPEDFAVYYCHQRNSYPWTFGQGTKVEIK
notes: as for B1
B3: H6L10 (antibody, human IgG1, V domains shown)
VH: B1 VH
VL: B1 VL with S69D, Y70F, S71T
notes: as for B1
B4: H6L12 (antibody, human IgG1, V domains shown)
VH: B1 VH
VL: B1 VL with R45L, W46L
notes: as for B1
B5: H8L5 (antibody, human IgG1, V domains shown)
VH: B2 VH
VL: B2 VL with H88Q
notes: as for B1
B6: H6L5 (antibody, human IgG1, V domains shown)
VH: B1 VH
VL: B2 VL with H88Q
notes: as for B1
B7: H6L6 (antibody, human IgG1, V domains shown)
VH: B1 VH
VL: B1 VL with H88Q
notes: as for B1
B8: H6L11 (antibody, human IgG1, V domains shown)
VH: B1 VH
VL: B2 VL with R45L, W46L
notes: as for B1
B9: H8L8 (antibody, human IgG1, V domains shown)
VH: B2 VH
VL: B1 VL
notes: as for B1
B10: H8L6 (antibody, human IgG1, V domains shown)
VH: B2 VH
VL: B1 VL with H88Q
notes: as for B1
B11: H8L1 (antibody, human IgG1, V domains shown)
VH: B2 VH
VL: B2 VL with R45L, W46L, S69D, Y70F, S71T
notes: as for B1
B12: H8L2 (antibody, human IgG1, V domains shown)
VH: B2 VH
VL: B2 VL with L13V, K38R, R45L, W46L, S69D, Y70F, S71T
notes: as for B1
B13: H8L4 (antibody, human IgG1, V domains shown)
VH: B2 VH
VL: B2 VL with L13V, K38R, R45L, W46L, T57I, S69D, Y70F, S71T, Q99P, E104D
notes: as for B1
B14: H8L3 (antibody, human IgG1, V domains shown)
VH: B2 VH
VL: B1 VL with R45L, W46L, S69D, Y70F, S71T
notes: as for B1
B15: ch128.1 (antibody, human IgG1, V domains shown)
VH: EVQLQQSGPELVKPGASMKISCKASGYSFTGYTMNWVKQSHGENLEWIGRINPHNGGTDYNQKFKDKAPLTVDKSSNTAYMELLSLTSGDSAVYYCARGYYYYSLDYWGQGTSVTVSS
VL: QIVLTQSPAIMSVSPGEKVTMTCSASSSIRYIHWYQQRPGTSPKRWIYDTSNLASGVPARFSGSGSGTSYSLTISSMEAEDAATYYCHQRNSYPWTFGGGTRLEIR
notes: mouse 128.1 V regions; also called chimeric antibody; parental chimeric antibody
B16: H6L7 (antibody, human IgG1, V domains shown)
VH: B1 VH
VL: B2 VL
notes: as for B1
B17: H8L9 (antibody, human IgG1, V domains shown)
VH: B2 VH
VL: B2 VL with S69D, Y70F, S71T
notes: as for B1
B18: H6L9 (antibody, human IgG1, V domains shown)
VH: B1 VH
VL: B2 VL with S69D, Y70F, S71T
notes: as for B1
B19: H8L10 (antibody, human IgG1, V domains shown)
VH: B2 VH
VL: B1 VL with S69D, Y70F, S71T
notes: as for B1

Residue numbers refer to the chain shown, from its start.

In general, EC50 (read off the curve) refers to the concentration giving half of the maximal effect.

For the first experiment, the target named is T1, soluble human TfR1 (sCD71) (human, UniProt P02786 89-760).
T1 construct: extracellular domain; Two sources (Cal Tech, Kerafast) are kept as one molecule; also called Human sCD71; transferrin receptor 1
T1 sequence (P02786 89-760): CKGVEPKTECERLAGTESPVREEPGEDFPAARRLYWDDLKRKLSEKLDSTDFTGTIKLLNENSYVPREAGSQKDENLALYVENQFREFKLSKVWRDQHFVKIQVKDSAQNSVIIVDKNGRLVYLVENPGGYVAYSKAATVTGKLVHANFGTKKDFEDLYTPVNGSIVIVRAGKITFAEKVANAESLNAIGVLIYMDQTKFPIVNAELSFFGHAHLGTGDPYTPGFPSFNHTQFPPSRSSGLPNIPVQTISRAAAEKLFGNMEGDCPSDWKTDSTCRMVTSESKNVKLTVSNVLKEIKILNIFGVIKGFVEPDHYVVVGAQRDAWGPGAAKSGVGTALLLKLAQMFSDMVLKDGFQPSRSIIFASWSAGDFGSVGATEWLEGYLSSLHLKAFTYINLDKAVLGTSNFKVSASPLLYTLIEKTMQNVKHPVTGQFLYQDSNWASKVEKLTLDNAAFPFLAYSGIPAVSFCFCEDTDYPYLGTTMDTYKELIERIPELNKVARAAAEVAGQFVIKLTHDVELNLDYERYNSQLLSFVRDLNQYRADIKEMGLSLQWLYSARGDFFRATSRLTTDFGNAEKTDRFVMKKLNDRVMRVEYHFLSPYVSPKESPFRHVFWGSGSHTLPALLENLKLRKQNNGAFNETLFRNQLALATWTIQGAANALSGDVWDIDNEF
The experiment in a line: ELISA, soluble human TfR1; semi-quantitative grade. A general note: In an ELISA, binding on a coated surface is turned into a signal by an enzyme label.
Turning to B1, the binding result is recorded as “binds”.

B2: the binding result is “binds”.

With B3, the binding result is “binds”.

In the case of B4, the binding result is reported as “binds”.

As for B5, the binding result is given as “binds”.

B6: the binding result is “binds”.

Regarding B7, the binding result was “binds”.

With B8, the binding result is listed as “binds”.

As to B9, the binding result was “binds”.

As to B10, the binding result was “binds”.

The target of the next experiment is T2, human TfR1 on the cell surface (KMS-11 or MM.1S human MM cells) (human, UniProt P02786 1-760).
T2 construct: whole, on cells; also called human cells expressing the TfR1; CD71
T2 sequence (P02786 whole entry): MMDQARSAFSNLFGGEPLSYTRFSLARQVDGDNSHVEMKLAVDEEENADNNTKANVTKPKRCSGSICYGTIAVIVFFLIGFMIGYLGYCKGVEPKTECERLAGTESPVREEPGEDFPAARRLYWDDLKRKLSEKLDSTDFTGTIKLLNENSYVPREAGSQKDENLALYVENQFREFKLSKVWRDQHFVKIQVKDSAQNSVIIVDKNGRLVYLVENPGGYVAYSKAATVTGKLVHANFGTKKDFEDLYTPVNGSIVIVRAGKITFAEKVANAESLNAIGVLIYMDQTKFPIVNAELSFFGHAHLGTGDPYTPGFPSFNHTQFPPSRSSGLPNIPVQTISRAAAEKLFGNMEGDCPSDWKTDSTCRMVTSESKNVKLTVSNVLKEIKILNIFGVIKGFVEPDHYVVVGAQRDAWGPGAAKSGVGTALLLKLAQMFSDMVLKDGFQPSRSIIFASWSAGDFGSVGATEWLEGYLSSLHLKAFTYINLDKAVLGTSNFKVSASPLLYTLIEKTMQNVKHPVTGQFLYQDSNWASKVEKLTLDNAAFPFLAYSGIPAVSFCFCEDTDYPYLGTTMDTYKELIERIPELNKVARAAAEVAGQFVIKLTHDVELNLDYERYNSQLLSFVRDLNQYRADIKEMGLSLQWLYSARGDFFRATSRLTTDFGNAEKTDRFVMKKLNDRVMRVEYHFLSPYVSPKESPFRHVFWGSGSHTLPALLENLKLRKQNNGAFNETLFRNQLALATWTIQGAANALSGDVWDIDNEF
The experiment can be described thus: flow cytometry on KMS-11 cells; semi-quantitative grade. The procedure: (§1) KMS-11 cells (Namba et al., In Vitro Cell. Dev. Biol. 25(8):723-729 (1989)), a kind gift from Dr. Lawrence Boise (Emory University, Atlanta, GA, USA), and MM.1S cells (Greenstein et al., Exp. Hematol., 31(4):271-282 (2003)), purchased from the American Type Culture Collection (ATCC, Manassas, VA, USA; ATCC® CRL-2974T”) human MM cells were incubated with 2 μg of humanized antibodies or the control antibodies (ch128.1 as a positive control or a negative isotype control IgG1) for 2 hours on ice. Binding was detected using a PE-conjugated anti-human κ antibody. Samples were analyzed on an LSRII analytical flow cytometer (BD Biosciences, San Jose, CA, USA) and 10,000 events were collected. Histograms were created using the […] Version 3 (De Novo Software, Glendale, CA, USA).
(In general: In flow cytometry, cells or beads pass a laser one at a time.)
For the molecule B1, the binding result is “binds”.

With B2, the binding result is on record as “binds”.

Take B3: the binding result was “binds”.

For the molecule B4, the binding result was “binds”.

In the case of B5, the binding result is listed as “binds”.

Take B6: the binding result was “binds”.

For the molecule B7, the binding result is listed as “binds”.

Regarding B8, the binding result is reported as “binds”.

Regarding B9, the binding result was “binds”.

In the case of B10, the binding result was “binds”.

The target of the next experiment is TfR1 (antigen; form in the assay not stated) (human, UniProt P02786 89-760, limits assumed). The experiment can be described thus: assay not named in the sentence (ELISA and flow cytometry per paragraph 218).
Sequence of TfR1 (antigen; form in the assay not stated) (P02786 89-760 limits assumed): as the sequence (P02786 89-760) above
In the case of B11, the binding result is given as “no binding”.

As for B12, the binding result is reported as “no binding”.

Consider B13, for which the binding result was “no binding”.

With B14, the binding result is listed as “no binding”.

A further experiment addresses T2, human TfR1 on the cell surface (KMS-11 …). The experiment can be described thus: flow cytometry on MM.1S cells, 2 ug antibody, PE anti-human kappa detection. The procedure: as §1
Regarding B15, the binding result is reported as “binds”.

Consider B16, for which the binding result is given as “binds”.

Take B17: the binding result is given as “binds”.

As for B18, the binding result is on record as “binds”.

Take B19: the binding result is “binds”.

A further experiment has as its target T1, soluble human TfR1 (sCD71). The experiment can be described thus: ELISA, plate coated with soluble human TfR1 (Kerafast), 2-fold antibody dilutions, AP anti-human kappa detection, A405. The procedure:
(§2) Immulon-H2B plates (Thermo Fisher Scientific, Inc.) were coated overnight at 4° C. with soluble 5 μg/mL TfR1 (sCD71) in 50 mM carbonate/bicarbonate buffer, pH 9.3. Human sCD71 was obtained from either Cal Tech (California Institute of Technology, Pasadena, CA, USA) or Kerafast, Inc., while cynomolgus monkey (Macaca fascicularis) sCD71 was purchased from Sino Biological, Inc. (Wayne, PA, USA). Plates were washed with PBS and blocked with 3% BSA in PBS. Serial 2-fold dilutions of antibodies (200-3.12 ng/mL) were added to the plate in duplicates and incubated overnight at 4° C. Binding was detected with an AP-conjugated goat anti-human κ antibody (MilliporeSigma) and AP substrate, p-nitrophenyl phosphate disodium (MilliporeSigma), dissolved in diethanolamine buffer (9.6% diethanolamine (v/v), 0.24 mM MgCl₂ in water, pH 9.8). Plates were read at absorbance 405 nm using a FilterMax F5 multi-mode microplate reader (Molecular Devices, Sunnyvale, CA, USA).
Regarding B16, the binding result is “binds”.

Take B17: the binding result is on record as “binds”.

Consider B18, for which the binding result is “binds”.

Turning to B19, the binding result is “binds”.

The next experiment deals with T3, cynomolgus monkey (Macaca fascicularis) soluble TfR1 (sCD71) (cynomolgus monkey (Macaca fascicularis), UniProt H9EXL1 89-760 (rhesus entry)).
T3 construct: extracellular domain; also called cynomolgus monkey TfR1; cynomolgus monkey sCD71
T3 sequence (chain, as listed by the source): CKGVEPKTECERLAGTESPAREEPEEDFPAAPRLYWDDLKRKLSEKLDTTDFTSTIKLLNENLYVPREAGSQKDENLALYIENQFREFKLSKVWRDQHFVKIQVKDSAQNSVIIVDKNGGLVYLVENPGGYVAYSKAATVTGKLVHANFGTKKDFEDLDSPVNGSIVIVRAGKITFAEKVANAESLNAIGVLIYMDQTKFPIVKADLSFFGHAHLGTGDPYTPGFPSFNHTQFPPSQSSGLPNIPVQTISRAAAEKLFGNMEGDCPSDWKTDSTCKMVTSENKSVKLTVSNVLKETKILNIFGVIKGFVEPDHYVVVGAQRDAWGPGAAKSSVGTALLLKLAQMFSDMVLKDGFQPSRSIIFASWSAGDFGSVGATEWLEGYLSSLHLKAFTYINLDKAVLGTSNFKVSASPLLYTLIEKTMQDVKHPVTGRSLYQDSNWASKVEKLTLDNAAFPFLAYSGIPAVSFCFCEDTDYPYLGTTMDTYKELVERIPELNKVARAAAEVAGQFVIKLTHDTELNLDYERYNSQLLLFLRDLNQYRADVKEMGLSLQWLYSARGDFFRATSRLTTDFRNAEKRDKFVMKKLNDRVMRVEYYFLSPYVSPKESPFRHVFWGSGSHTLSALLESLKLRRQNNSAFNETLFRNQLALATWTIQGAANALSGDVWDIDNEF
The experiment can be described thus: ELISA, plate coated with soluble cynomolgus monkey TfR1 (Sino Biological), 2-fold antibody dilutions, AP anti-human kappa detection, A405. The procedure:
as §2
Take B15: the 50% effective concentration (EC50 (read off the curve)) was around 0.03 µg/mL.

In the case of B16, the 50% effective concentration (EC50 (read off the curve)) is around 0.03 µg/mL.

In the case of B17, the “EC50 (read off the curve)” value was around 0.04 µg/mL.

In the case of B18, the “EC50 (read off the curve)” value is around 0.03 µg/mL.

For B19, the “EC50 (read off the curve)” value was around 0.04 µg/mL.
